Results published in the supplement of paper PMC10126150.
± gives the standard deviation of the averaged measurements.

Test system: ATP
Assay: switch fluorescence ratio, 500 uM ATP over buffer (Cy3 cluster intensity, sum of 5 cycles each) (fold (ratio)); higher = stronger signal-on switching upon ATP binding; sequences stand for … in TCGTCGGCAGCGTCAGATGTGTATAAGAGACAGTTTTTTTTTTTTTTTTTTTTTTTTT…TC
Conditions: aptamer strand: ATP DNA aptamer (quencher-CACCTGGGGGAGTATTGCGGAGGAAGG + anchor), 100 nM annealed; ATP concentration: 500 uM
Summary of the method: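 Cy3-labelled switching-strand clusters on a modified Illumina MiSeq flow-cell were annealed to 100 nM quencher-labelled ATP aptamer and imaged first in selection buffer, then after 15 min with 500 uM ATP at 22 °C. NaOH stripping and re-annealing separated each of five buffer/ATP cycles, and clusters outside 100-1000 RFU were excluded. The fluorescence ratio sums target-cycle Cy3 intensity over buffer-cycle Cy3 intensity per cluster and averages it per switch-domain sequence.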
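Also: ATP exposure 15 min at 22 °C before imaging.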

Sequence | switch fluorescence ratio
ATGGAAGGGT | 0.988 ± 0.052
TTATCATCTT | 1.01 ± 0.032
CGGGCGTTGT | 1 ± 0.04
TTGGGCTTTC | 1.04 ± 0.03
CGACAAGAGA | 1.47 ± 0.085
TTAATATTAC | 1.01 ± 0.014
AATGGTTGGT | 0.994 ± 0.016
TGATTGGGTC | 1.02 ± 0.036
ATGAGTATTT | 0.979 ± 0.046
GGGTTGGGGC | 0.999 ± 0.049
TCAGAATATT | 0.978 ± 0.023
GGACGTCTGA | 1.02 ± 0.041
GGGAATGTAT | 0.979 ± 0.037
GGGGTGTATT | 0.984 ± 0.025
CTGTCTGAGT | 0.9632 ± 0.007
TACTCTGGAA | 4.15 ± 0.18
TTAGGTGTCC | 1.08 ± 0.057
GACGAGGGGG | 0.949 ± 0.11
CCAATCACGG | 1.09 ± 0.012
GAGTTTTATG | 0.9631 ± 0.0025
GGCGTACAAA | 0.985 ± 0.019
CAGGATGTGC | 0.992 ± 0.032
GCTACTGGCA | 1.003 ± 0.0077
ATTTTACCAT | 1.04 ± 0.075
ATTATCTGGT | 1.02 ± 0.043

Sequence | switch fluorescence ratio
GATTGCAGTA | 0.983 ± 0.036
TATTTTATTA | 1.011 ± 0.0085
GGGTACCTAC | 1.06 ± 0.042
GTTACCCAGT | 1.049 ± 0.0098
TTTTTATTAG | 0.983 ± 0.027
AGGCCCGTGT | 0.98 ± 0.068
GGCTCAGAGA | 1.004 ± 0.0045
TTTTTAAA | 0.988 ± 0.017
CATTCGTTTC | 1.15 ± 0.05
GACGAGGGAT | 1.1 ± 0.034
TAAATAATCG | 0.968 ± 0.038
ACATGAGGGA | 1.02 ± 0.067
GCCATGGCTT | 1.01 ± 0.0039
TTGGGTGATC | 1.01 ± 0.049
CCGCGTCTGT | 1.24 ± 0.032
GCTGGCACAC | 1.04 ± 0.021
GTTTCGGGTT | 0.986 ± 0.019
GTGGGAATAT | 1.001 ± 0.0083
CAGCGGGACG | 1.02 ± 0.035
AGGGTGCTGT | 1.02 ± 0.016
TTTTGGATGC | 1.05 ± 0.045
AAACGCAACC | 1.57 ± 0.089
TATTTTTATT | 1.01 ± 0.021
GCATTATATG | 1 ± 0.03
AAGTGCTTGA | 1 ± 0.069

Sequence | switch fluorescence ratio
CCGAGTAGGG | 1.074 ± 0.0031
TTTGTTCACT | 0.989 ± 0.041
TTAGGGGTAT | 0.996 ± 0.05
CAAAGGGGCG | 0.975 ± 0.045
GTTTTTTTGC | 0.9766 ± 0.006
TGGGGTTGAA | 0.958 ± 0.022
CGTGTTGGGT | 0.998 ± 0.048
CCAGTGATGT | 1.04 ± 0.024
TAGAAGCCCC | 1.09 ± 0.039
TTTTTATGAC | 1.01 ± 0.029
AAAGCCCGCG | 0.961 ± 0.066
ACTGGTCGCC | 0.992 ± 0.015
AATGTAGGAC | 1.018 ± 0.0026
GGTTGGAATT | 1.01 ± 0.025
GGACGGGGGG | 1.01 ± 0.056
GTGGTGTACT | 0.985 ± 0.0081
TGGGGGTCCT | 1.01 ± 0.031
GTTGATTTTA | 0.972 ± 0.014
CGTACATGAT | 1.02 ± 0.022
CAAAAATGGC | 1.02 ± 0.011
TGTGTGGGTC | 0.991 ± 0.028
CCTTGCCGGG | 1.05 ± 0.019
AATGGGTCGT | 0.9673 ± 0.0077
CCGTCAAGAG | 4.35 ± 0.16
CAAGGGGACG | 1.004 ± 0.0082

Sequence | switch fluorescence ratio
TATCTGTATA | 1.11 ± 0.17
TGGATGTCAT | 1.07 ± 0.059
TTTGGTTGAC | 1.02 ± 0.053
TTTGTTTTTA | 1.02 ± 0.041
ATATAAGCGG | 1.02 ± 0.047
GCTGGTTGCT | 0.994 ± 0.039
AAGGTTCTGA | 0.981 ± 0.016
TTCATGGACA | 0.99 ± 0.014
AATTGGATCT | 1.01 ± 0.027
CATTTGCCTT | 1.03 ± 0.035
TACGAAAAGA | 1.04 ± 0.052
CCGGAAGGGC | 1.84 ± 0.69
TTAAGTTGTT | 0.965 ± 0.016
CATATGTTGA | 0.975 ± 0.026
GGTTTAAACT | 0.987 ± 0.016
CGGCTTTGCC | 0.999 ± 0.016
TTTTGCTTTT | 0.998 ± 0.027
TGAAGTAACA | 1.06 ± 0.038
TGTTCGGTGT | 1.008 ± 0.0049
GGTTATTTTG | 1.01 ± 0.015
TACGGGACGG | 1.07 ± 0.023
GCTCTGACGG | 1.054 ± 0.0086
TTTGGGTGGA | 1.02 ± 0.05
CCGCTTTTAT | 2.69 ± 0.48
GGGGCCGAAT | 1.01 ± 0.021

Sequence | switch fluorescence ratio
TTGAAAGGTG | 1.29 ± 0.24
ATTGCTGTTT | 1.037 ± 0.0019
CGTGTTGTGG | 0.97 ± 0.067
AGAAAGAGGT | 1.011 ± 0.0096
ATATGCAGGG | 0.993 ± 0.00024
ATGTTCCTAC | 1.04 ± 0.011
GATTGTGTG | 0.998 ± 0.03
CTGATATGCG | 0.997 ± 0.023
ACAAGACTGT | 1.04 ± 0.048
GGTCCTGTTT | 0.994 ± 0.02
GATGTGGGGC | 0.996 ± 0.029
GGGAGCCTTC | 1.01 ± 0.031
GGTACGAACG | 1.29 ± 0.045
GCACGAGCCC | 1.316 ± 0.008
GGGGTAGTAC | 1.03 ± 0.026
CACAAGGACG | 0.962 ± 0.017
CTGAGGGAGA | 1.04 ± 0.03
ATTACAAAAA | 1.01 ± 0.014
ATTGGTTTCT | 1.04 ± 0.074
GGATTTGAGG | 1 ± 0.026
TTTACGAAGT | 0.966 ± 0.013
CTTGGCGAGA | 1.01 ± 0.018
AAAGCTCGCT | 0.973 ± 0.015
TGCTTTCATG | 1.01 ± 0.027
GGGTACGTTC | 1.01 ± 0.023

Sequence | switch fluorescence ratio
TTTAGAATTT | 1.01 ± 0.019
AACGAGTGAG | 1.01 ± 0.023
AGATTGGGCA | 0.981 ± 0.011
GGGTATGGTT | 0.998 ± 0.028
TGTAAAGGGT | 0.9778 ± 0.0084
AGTCGGGGGT | 0.99 ± 0.024
CCACTGGGGG | 1.04 ± 0.028
CGGTTTGTAT | 0.985 ± 0.023
ACCGACCGGG | 1.074 ± 0.005
AGGTGGGGCT | 0.9811 ± 0.0089
GGTCTATCCG | 0.983 ± 0.046
TAGCTCGGGA | 0.9742 ± 0.0097
TTTTAAGTCT | 1.02 ± 0.0036
TTGGGTGTCT | 0.988 ± 0.057
TGCAATTAAC | 3.51 ± 0.17
TGGGGACGTG | 1.013 ± 0.0047
GGGGGTACCG | 0.977 ± 0.021
CGGTCACTGT | 1.03 ± 0.038
TACTATACGA | 1.367 ± 0.0015
AGATCGACGC | 1.19 ± 0.026
ACTGATGTAC | 1.09 ± 0.012
GTAGTTCGGG | 0.997 ± 0.036
TAGAGAAGCC | 1.04 ± 0.025
GATACATAAA | 1.036 ± 0.0092
TCCTTCGGCG | 1.3 ± 0.078

Sequence | switch fluorescence ratio
TATAAACGGG | 1 ± 0.024
TTGCAGGGTG | 1.17 ± 0.035
AAGGATGTAA | 0.995 ± 0.03
CTGTGCTGT | 1.005 ± 0.0062
TTTGTTTTTG | 1 ± 0.026
AAAGGTCAT | 0.9933 ± 0.0018
TATTTAGGTT | 1.006 ± 0.006
AGTGGGTAGA | 1.04 ± 0.049
AGCGAGGTCT | 0.977 ± 0.027
ATGGTTCAAT | 0.987 ± 0.029
AAGGGTTAT | 0.995 ± 0.017
TTTCTGTGGA | 0.9892 ± 0.0091
TTCAGGTGTG | 1.142 ± 0.0073
TGGTTATGTA | 1 ± 0.014
AAAAGGAGGG | 0.999 ± 0.013
GCAAATGGAA | 0.982 ± 0.042
TGCCTTGCCA | 1 ± 0.012
ATGTTCGTTA | 1.0123 ± 0.00085
TTTCAGGGGT | 1.86 ± 0.81
TTGGTGTTGG | 1.01 ± 0.044
TATTATGGGT | 0.982 ± 0.036
TGCGGCGAGG | 1.016 ± 2e-05
CGGAGGGGCG | 0.963 ± 0.06
TTCGGGCGTC | 1.01 ± 0.039
CAGGAACTTA | 0.9843 ± 0.0052

Sequence | switch fluorescence ratio
TCTATAGTAA | 1.057 ± 0.0087
TTGGGCCTCT | 1.01 ± 0.029
ACCCGGGGTT | 0.994 ± 0.013
AGAGTTTGGT | 0.9847 ± 0.0013
ACGTATCCGG | 0.9932 ± 0.0067
TTTTTAAGGA | 1.04 ± 0.048
TTTCATTCTC | 0.991 ± 0.01
TTTTTGCGCT | 1.04 ± 0.047
AACTGAGAAG | 0.988 ± 0.015
CGGTGAGCGA | 1.03 ± 0.044
GTGGGCGGCC | 0.99 ± 0.028
GAATGTCGGG | 0.97965 ± 8.2e-05
TGTGGCGTAT | 1.011 ± 0.0014
AAGGTGGGCC | 0.985 ± 0.019
CACGTTTGTT | 1.027 ± 0.004
ATCGTCGGGA | 0.977 ± 0.02
TTTGCGTTCA | 1.02 ± 0.078
TATTGTTAAA | 0.987 ± 0.029
GAATGCAAAG | 1.03 ± 0.041
TGGGATAATG | 1.012 ± 0.0042
TTCAATGTTT | 0.978 ± 0.049
TGTTGTGTGG | 1.02 ± 0.027
GAGCTAGAAA | 1.05 ± 0.065
ACACGATGCC | 1 ± 0.043
CTTGGGAATA | 1.01 ± 0.05
